The data set has as its system C=C(OP(=O)(O)O)C(=O)O. Put plainly: In vitro kinetic assay (inorganic phosphate production, malachite green). The data set is classed as biochemical, Mariprofundus ferrooxydans. Conditions: other: pH 7.5, 1 mM S3P.

1 substance from patent US9873883B2, “Glyphosate resistant plants and associated methods” (Dow AgroSciences LLC, priority 2012, dated 2018) can be followed below.

As a reminder, the Km is the substrate concentration at which the rate is half of its maximum. For the substance “Mariprofundus ferrooxydans EPSP synthase DGT-14 variant DGT-14 v6 (G101A), SEQ ID NO:1 (Mariprofundus ferrooxydans PV-1; G101A)”, the Michaelis constant (Km) is 352.5 µM.
